Laboratory results taken from PMC11098746 (2024).
No end group written: not given here.

B1: 10 (protein)
chain: FRKYDKNKNKILISHSINNNNNAIKNNNNNNNAIKNNNNNNNAIKNNNNNNNAFSATSFSSEKNKNKAYTNVLKKKNIYIREESNKATNIKEDEEKNKKINNNDKETNYAFLSLKFFPFILTSLLHTGINQIPRNTEIELYEFEKSPMIRHMLVAEERKN
modifications: bait human Fc-tagged dimer
B2: 3 (protein)
chain: MGFHIQRYIAMMGRGINPKTWKKLWVDSKNKQIIHVYNDVAEFMNNQIAQVVRVYQYRY
modifications: also: human Fc-tagged dimer
B3: 55 (protein)
chain: INVQIGNQKYSLCSNKIKKDLLDFYNTLGVSKSDKNLKDNIKKVNLYTKFRKRLYKDRLSIYANVAIKEKGEEVVPVKVVDEKENKENEEKTNILDQEIFTNFMQYNKNNFFCIDELGLDISIPFYKNSGFGANVVYQLPEMVYVNAYTNIYNTIIKGEFNSIDILKRISFFQFFDNFYLNAHYDFKSEKALLNLESKLYEYYNKHGDNIAFNNKIIVERNMHNEYDGSVCLSLKYNNNVFTPIFNFKDKTYEYVYDNLAANRKFSVKVDKERNVHFNYLSFDRVDESNKYFLFFNFIFSNPMQSIITLKREFIF
modifications: bait human Fc-tagged dimer
B4: 79 (protein)
chain: YLEQIKNGISGHYTEDHNIKNNNCISFSDYERSIKNFAISSHAENNYDNIINEYKKIKDINNNINILSSVHRKGRILYDSFLEINKLENDKKEKHEKEDEYEDNDESFLETEEYEDNEDEKYNKDEDDYAESFIETDEYEDNEDDKYNKDEDDYSESFIETDEYDDNEEEQYNKDEDDYTDSFIETDHYENNDDKNEEEEEYNDQDNDYGYNFLETDEYDDSEEYDYDDKEYGESFLEKEEGEEMKDEEMKDEEMKDVEMKDEEMKDEEMKYDEMKNEEMKYDEMKDEVMKDEEMKDEVMKDEEMKDEQMKYEEFKNEESKNEESKNEESKNEESKNEEFKNEESKNEEFKNEEFKNEDMSYDEYMGYKKKEEDESYNTFNGAKKNNAANSFLEKDLQGDSDDELHSTFYSKNVDKENYDDKNIFYGYSDNDDESFLETDSYEEYEDEDKDVEDEYEESFLQNDEKKMVFYDLYKPEENEAYYEKKQKKEEKEEKEEKEQSLNKQNDMEDQEDNEEYKFEEENKEDLLDVQQDEELPSEGKQKVKGKSFDNEHLNEIQNVADVHAFIQKDMKYLDDLIDEEQTIKDAVKKSAYKGNKKLGNNKKSQMILEEEPEENFEEDADEELNKLMEQEKNIVDKEIKNSKANKANKKLQFNNANKQNKMYMKNEYNNKAKNNKNNKFEQQNYDESYMDDDYEQNEEFNDNNQAEDMKETNELDKINDELLTDQGPNEDTLLENNNKIFDNKFVAHKKREKSISPHSYQKVSTKVQNKEDMENKEEKQLINDEAAMTAEELVELENTEDVNTPTMVETEEIDSDENGNKAS
modifications: bait human Fc-tagged dimer
B5: 56 (protein)
chain: FLRNKEHANLINSYNDIVEDINIKKEEKSSSEPPFIPIKNKIDNVHTKNNNQYNLHNNKANKAHLTYGTHTSFLQNCAINDCVDVDNKDSEINNIAKEKDDNNNNNGAKQIEEKNKINKADLHRQNELNLQSGKNEQDINKNEKGKQDISNSNAENKKDVKEGVKELEEKKKEEKISDDHKVEENKKSDDHKVEENKKSDDHKVEENKKSDDHKIEEVKKVEEHEEDEEEDKKEKKSENKNKDENKDENDEDNDEISDEDEVDDDVEEDKNENDDIDDDKKETDKTHLEEEENEIIEKEFSDKKKNGKNKDTKKEKSKDTEKEKSKDIEKEKSKDKEKEKSKDKEKEKGKDKEKEKSKDIEKEKEKDKDIEKEKSKDTAKEKEKDKDIEKEKSKDMEKLKNKQNDEKKKDDNEKKKNDKQDIHDDNDDENDMEEIEENDDEEDEDEDMENKKKKKKGKNGNENGNENGAENGNENGNENGNENENKNEAENENENENENENGNENENEKENEKDKNIKEIENVANANKENYEKINKNSEITITKSNIDIYNNNRNNDIDKVNNHIFTNQQKKHNLHNEQNKFNEALNVATNHKNHYEEKKKYESNMFNVDKRMHKNLASMDTILHNLNDKLSHHKDLKNRELKLKFEAMSRIKEYKIYNELIQKSVEILTLRLTKINDELKKLKDISENALQKYINEKGYGLMKHYNFPEYNKLEEEKIMKRSKITWNEKKSHHLYCPMECNKERCYNRPRGPTQCYKLEQIGRNIETICEPFINEHNGACRPDFHHCAIAEPERNKKYSIYATDDVHFVPSQFVTIKGYNLHECLQFLVVKKNSACGPMTIEKNLMESEEILKEPVLSKVLYNEILFENIKISTPGEYNICLAQFYQDPEKDDILSENSANKYKKKKKNDMKVLGIDTIGTLYVLPLHEKQKTG
modifications: bait human Fc-tagged dimer
B6: 57 (protein)
chain: NDLCSCNLKVRNNWEHFLQVYQNNGNFKMEILEPECTIQKNLPSEEEKEEFIDFDRKELLLHDFVVIKNSQFTDEKTLELYLSKEENNKAYLMLTFYLGDLKLMIGHNSPYEISLILNVATVNKNMANCKNNAYNIVLLKTTDVFNTADLEILEGPIQFSLGKSSGAFRINVANFFLNNAWKAFTKDKISFLIKPEENCYTILENKINKPQLLIEKKTTFYSEWGEWSNCAMDCDHPDNVQIRERECIHPSGDCFKGDLKESRPCIIPLPPCNELFSHKDNS
modifications: bait human Fc-tagged dimer
B7: 53 (protein)
chain: EKLISKLTKNGDLDLVLLYDIGFVDDSENDHMNSLENIAELGKNLLVRDNKNINLAYITYDDINVDLRIESRNNIGVDNENNYDKDNNAAYKFGSDKNIEEFRNVVLDTKLKSSYKNSAHLKALNYVGLKHFYNSEKESVKMVVMFMNTDGDYNNNNNNNMNNIASSYSAELNLVHYLFDRKNIILNIITRVAFKNYCHYIQQIGSNTNELLKCVLKNSFYNIAALTYEIIKYYDDISINAICHGWSEWSPCSVTCNMGYHFSKRDSLGYIKNSKSGLYKRKGRSCLEQRNLIIQECFNTACDHSLDICDNIYMDISILLDDSSNIALESWNKYIIPFVRKFITHFNINNNQINFALTTYSSHTYNWFNFANVLSKDKDKLLTYLEFFKFNFGSSTKNIKQAIQYMNDHVLNTNYRRNDAKKIMLIINSGEIDNKAVTSVPDIIQRLKDTHNVQVYSICINNQNVKNCRKLSTHSMEKYGSNFAFSLPNAADLRYNVLGIQKSICRNVAGAFRRKLRSGNKDDEDKKDDEYKEEDEYKEEDEYKEEDEYKEEDEYKEEDEYKEEDEYKEEDEDMKKDEDMKKDEDMKKDEYKKGYKDYKKDQSKNDNKAEERKDEGNIATSNEHHASEKTDDEDIITQYNEEDRHDNSNDNIIIDDEPVGQDNSIFKNENFFWGRGKHDSKYTSKLSINSLGDINEYNDDYNNYDYYDDDPTNRNKGFLKKNSIILKSLYNLNEDYVNNNINNDAGSTSSHCRNNNAGHNDIPHFKNMRKYNSETNIPCSSKSNKATNKKLLNRLYNMLFRKKKKYRIKNMDAHSKKKVEKFIENIKFSKENNDDNRKIDEQNIEIQFDTLLDGIFDFLQDYDNSALNAFNNAAPDDDFVYFSNTAPCGVSLMDFPIYDMENMEADVGGKRNDGDNNDDDDNNDDGDNNDDGDNNDDDDNDDKSNNNNNNNNNGDPSSNNNNNNNNNNGDPSSNNNNNNNGDPSSNNNDDGDADEKRNDYISQYNLVLKDKSHNNNYYMTNEHDERKIKKQENIDILSKEEDNIASNYNNELQRTKRSLDFPEIIIKENYENPKDIIHISKKEEANEANNAKGHINLKNKKEHNNVVDNVNPCNKQNINEEDNNINNAIKTARIGIFNKNKINCRNKKASKFDKIKRFNDKINKDNHPLITNVENKNEEIDVLQNNEDKKQKILPIIKNENAKETGQKYENNDVYEEHNKANINNNVEKLYKDKNSHHIKNQYDKGNLAENNEVTPIYSKDYDADDEEYEHWHGHQRDNKATP
modifications: bait human Fc-tagged dimer
B8: 71 (protein)
chain: EERYNFNMDKMLKITCHINLHLKKNPHFTITYKKNLQECIDSCKTNIYCTGIEFSRKRVEYTQIILKNNKKIILGYFKCKQFYFQNIYDYSSYNLDSYLNEHIENQINIKSTLTYTNFIMRNKPDIIYTCSIDRDPKYLLYKNYKLVECVIGKFCPGNNAPYMISCPINSATIIPASEDVNKCLCLKGYSYVGVTSYRCSLCDRGSYKNSVGNNKCDNCPLTFSTTHRGSTNIKDCSCTSGNYLTFD
modifications: bait human Fc-tagged dimer
B9: 1 (protein)
chain: EVESSDSTSFLNLISGQSSSNSDDTVSSSDSRGVVASVSGTVDSDVSRTDSTGNVNSKNSELSETRQNSVEQNNNANSADNSIKIKSAFLKENVGVKITGPCDEGFGLVMVPHIIINVDTRNTDIQLGKKSSEINYGIKLRKKGKDEYEEKVGIDLLKNVCETGKNFKFVAYIKGDELIIKWKVIEEGNIPIDIKKFKIKRMSPPITSIQVFSSMSDEKSFVLENKNYVVTNNMPEKCEALATNCFLSGNIDIEKCYQCSLLVENDAKSDVCYNFISRENKEKLNEERFKVKGSTEYEESVESELKGAIDLLISSFYKSDGENGENVLISFEDLNSALEDDIINFCSLLKLVDLSGTFMNHQIGTTADAFNNIVKLLKEHKEEDEFVLRTKLRNPALCMKNVDDWVKSRCGLLTSDDSYVVIKKNSDTNGKNENNEANDEEYDGVIDLSTNENGNVKSIQFNDDIYCNDDYCNRWKNENNCISKIGVEDQGNCASSWAFASKLHFETLRCMKGYDHLGISALYLTNCAKGKISKRCTEGGNPAEFLEIVSNSGFLPTEFDYPYFYALVENSCPSGLNKWINLWEDVKLFDYKYEPNSIGSKGYSVYKSEMFKDNMDEYVKMIKSEIKNKGSVIAYINAQSVLTYDFNGKNILNMCGSKTTDHSINVIGYGHYKNKEGEEKSYWLVRNSWGYYWGDEGNFKVDMYGPSNCNYHFINTVLVFNIDIPMMNNNENNKKGLYNYFPKYTHEFYHNFYDQNFGSDNKISLINSNGANKNDVNNAYTVHGQSGETEVQPSQLRSTANQDSNRGAVTSDPLRTQPETTSTSVKKMDVFQVLKHVKNSKIKVGLIKYDNDDEIGAHHSCTRAYSFDPEKYDECVEFCRKNWEQCKDKPSPGFCLTKLDESKGCFFCYV
modifications: bait human Fc-tagged dimer
B10: 47 (protein)
chain: NNIAHKEDDCGASELAIKKLQELKKFELDILKDFIKKDTDHTDMYKRYHCISSDFLKNTKQEDKKEDNYAKKEDKKDIENSANYIINNKNEKISFINKIISFVGMWNYNKYGNNIQESKNKINIYNNNNNKAENELLYNKEDYTNHIPTNENPNSYMQLSAFNLAKKSMFLGGKDNAAQNFEVGNYGSFYMIFGARNTDYPWACSCDTLQLEEYKEKKRSYVLCSNQLDMSIQNSDLFCNPKN
modifications: bait human Fc-tagged dimer

Biological target: FGFR4 ectodomain (Homo sapiens, UniProt P22455)
Experiment: AVEXIS normalised luminescence

Point of comparison: B7, binding score 1.23. Against it:
- B1 — higher, 1.56
- B2 — lower, 0.753
- B3 — lower, 0.922
- B4 — lower, 1.06
- B5 — lower, 0.733
- B6 — lower, 0.899
- B8 — lower, 1
- B9 — higher, 1.25
- B10 — lower, 0.93
